# Laboratory results from paper PMC4559766 (Scientific Reports, 2015).
# T1: Human TNFRI of ML-la cells (human, UniProt P19438 30-455)
# T1 construct: also called p60; source: endogenous, on ML-la cells (human myelomonoblastic leukemia cell line)
# T1 sequence (looked up): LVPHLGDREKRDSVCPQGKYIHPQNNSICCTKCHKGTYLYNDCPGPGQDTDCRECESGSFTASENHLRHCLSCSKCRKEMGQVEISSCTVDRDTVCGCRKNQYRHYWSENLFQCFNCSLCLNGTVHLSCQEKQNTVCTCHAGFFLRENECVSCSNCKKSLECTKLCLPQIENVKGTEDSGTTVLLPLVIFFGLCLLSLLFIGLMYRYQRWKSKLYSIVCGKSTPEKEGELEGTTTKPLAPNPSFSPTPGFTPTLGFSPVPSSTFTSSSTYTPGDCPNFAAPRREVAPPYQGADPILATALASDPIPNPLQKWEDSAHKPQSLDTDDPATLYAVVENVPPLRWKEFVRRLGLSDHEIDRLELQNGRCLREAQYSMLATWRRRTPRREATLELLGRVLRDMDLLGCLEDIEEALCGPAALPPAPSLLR
# B1: RMP16, recombinant TNF α-derived polypeptide (peptide)
# chain: MWQRPSSWIEGRLLTHTISRIAVSYQTKVNLL
# notes: P16, TNF α segment of amino acid residues 75-94, human; also called recombinant peptide RMP16
# How the values were obtained:
# Human serum albumin [1] = molecular target: T2, Human serum albumin (human, UniProt P02768 25-609); test: cell-based or functional assay
# [2] = molecular target: T3, Recombinant human TNFRI, disulfide-linked homodimer (human, UniProt P19438 30-455); test: ITC; VP-ITC calorimeter; peptide serially diluted and injected; KD by Microcal ORIGIN Ver. 5.0; method by refs 48, 49; details: both partners purified
# Human serum albumin [3] = molecular target: T2, Human serum albumin; test: as above; details: both partners purified
# Mouse serum albumin [4] = molecular target: T4, Mouse serum albumin (mouse, UniProt P07724 25-608); test: as above; details: both partners purified
# T4 construct: serum albumin, mouse; also called MSA; source: bought: Sigma
# T4 sequence (P07724 25-608): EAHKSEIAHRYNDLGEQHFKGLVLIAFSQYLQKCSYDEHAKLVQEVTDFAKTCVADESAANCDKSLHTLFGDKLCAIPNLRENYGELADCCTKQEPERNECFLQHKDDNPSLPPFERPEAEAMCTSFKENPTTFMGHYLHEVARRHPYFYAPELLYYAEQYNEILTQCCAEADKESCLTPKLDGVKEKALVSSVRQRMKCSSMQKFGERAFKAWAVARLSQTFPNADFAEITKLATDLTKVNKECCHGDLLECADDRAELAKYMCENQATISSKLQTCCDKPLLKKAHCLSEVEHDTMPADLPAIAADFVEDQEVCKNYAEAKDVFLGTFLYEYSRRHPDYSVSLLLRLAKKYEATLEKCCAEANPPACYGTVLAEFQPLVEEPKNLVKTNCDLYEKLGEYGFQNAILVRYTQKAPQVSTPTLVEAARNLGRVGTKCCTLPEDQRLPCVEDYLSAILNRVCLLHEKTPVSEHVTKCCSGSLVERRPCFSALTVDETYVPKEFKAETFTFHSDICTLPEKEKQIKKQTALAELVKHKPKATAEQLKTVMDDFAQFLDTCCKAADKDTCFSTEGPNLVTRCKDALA
# [5] = molecular target: T3, Recombinant human TNFRI, …; test: SPR; BIAcore 3000; peptide serially diluted and injected; KD by BIAcore kinetic evaluation Ver. 4.1; method by refs 48, 49; details: both partners purified
# Human serum albumin [6] = molecular target: T2, Human serum albumin; test: as above; details: both partners purified
# Mouse serum albumin [7] = molecular target: T4, Mouse serum albumin; test: as above; details: both partners purified
# [8] = molecular target: T1, Human TNFRI of ML-la cells; test: radioligand binding; competition: ML-la cells (1 × 10^6 cells/well) preincubated with anti-p60 or anti-p80 antibody (25 °C, 30 min) to block TNFRI or TNFRII, then 125I-labeled TNF α with unlabeled TNF α or RMP16 (10^-11 to 10^-5 M) in RPMI 1640 with 10% fetal calf serum, 25 °C, 1 h; cell-bound radioactivity counted; details: one partner purified
binder,measurement,setting,value
B1,"in vitro Factor Xa enzyme digestion half-life of RMP16 (10 μM) in the presence of HSA (2 μM), against 9.72 h without HSA",Human serum albumin [1],15.8 h
same,Kd,[2],20.4 nM
same,Kd,Human serum albumin [3],822 nM
same,Kd,Mouse serum albumin [4],894 nM
same,Kd,[5],21.3 nM
same,Kd,Human serum albumin [6],875 nM
same,Kd,Mouse serum albumin [7],925 nM
same,IC50,[8],15.1 nM
